# Source: doi:10.1101/2025.02.04.636439 (bioRxiv, 2025)
# T1: Mycobacterium tuberculosis thiosulfate-sulfurtransferase SseA (Mycobacterium tuberculosis, UniProt P9WHF7 1-297)
# T1 sequence: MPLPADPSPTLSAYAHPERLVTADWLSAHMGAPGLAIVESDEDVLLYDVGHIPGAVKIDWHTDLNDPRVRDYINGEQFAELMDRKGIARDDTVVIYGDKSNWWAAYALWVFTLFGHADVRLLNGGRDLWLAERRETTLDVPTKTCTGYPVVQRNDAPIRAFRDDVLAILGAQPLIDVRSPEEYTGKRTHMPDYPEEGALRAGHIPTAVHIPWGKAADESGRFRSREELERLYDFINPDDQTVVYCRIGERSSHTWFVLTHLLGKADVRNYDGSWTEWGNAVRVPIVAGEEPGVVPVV
# B1: SufEMtb (Rv3284), SufE-like protein of Mycobacterium tuberculosis (natural protein)
# chain: MTAPASLPAPLAEVVSDFAEVQGQDKLRLLLEFANELPALPSHLAESAMEPVPECQSPLFLHVDASDPNRVRLHFSAPAEAPTTRGFASILAAGLDEQPAADILAVPEDFYTELGLAALISPLRLRGMSAMLARIKRRLREAD
# Target: T1, Mycobacterium tuberculosis …
# Assay: ITC
binder,measurement,value
B1,Kd,3.3 µM
same,dH,-11.6 kcal/mol
same,stoichiometry N,1
